Where a chain is given by its changes, count along the chain named.
Experiments:
Assay in all cases: cell-based or functional assay
[1] = target: G5A (human)
[2] = target: H8A (human)
[3] = target: V2A (human)
[4] = target: E7A (human)
[5] = target: Y3A (human)
[6] = target: G1A (human)
[7] = target: V10A (human)
[8] = target: D4A (human)
[9] = target: T1, HLA-A2/MAGE-A4 peptide MHC (pMHC) complex on cells (human)
[10] = target: R6A (human)
[11] = target: T9A (human)
[12] = target: T1, HLA-A2/MAGE-A4 peptide MHC (pMHC) …; remark: listed apart in the source
[13] = target: T1, HLA-A2/MAGE-A4 peptide MHC (pMHC) …; remark: listed apart in the source
[14] = target: T1, HLA-A2/MAGE-A4 peptide MHC (pMHC) …; remark: listed apart in the source
[15] = target: DYNC1H1 (human)
[16] = target: KEAP1 (human)
[17] = target: pfkA (human)
[18] = target: MTOR (human)
[19] = target: ARF3 (human)
[20] = target: ARF1 (human)
[21] = target: MAGEB2 (human)
[22] = target: UBE2V2 (human)
[23] = target: GAPDHS (human)
[24] = target: VPS13D (human)
[25] = target: HLA-A2 with peptide MAGB6 on T2 cells (human)
[26] = target: SLC45A1 (human)
[27] = target: CCS (human)
[28] = target: gutQ (human)
[29] = target: KDM1A (human)
[30] = target: UNC80 (human)
[31] = target: EDC3 (human)
[32] = target: URB1 (human)
[33] = target: BNRF1 (human)
[34] = target: FBXO34 (human)
[35] = target: DPYSL3 (human)
[36] = target: CRMP1 (human)
[37] = target: DPYSL4 (human)
[38] = target: PKP1 (human)
[39] = target: PIGG (human)
[40] = target: HLA-A2 with peptide MAGA10 on T2 cells (human)

B1: Molecule A (bispecific antibody, V domains shown)
VH 1: YVQLVESGGGLVKPGGSLRLSCAAPLPFTGLDMSWVRQAPGKGLEWVGSISPKGGSTYYNDNVLGRFTISRDNSKNTLYLQMNSLRAEDTAVYYCARDWGFFDLWGQGTLVTVSS
VL 1: AIQMTQSPSSLSASVGDRVTITCRASQSISNYLAWYQQKPGKAPKLLIYDANAHENDVPSRFSGSGSGTDFTLTISSLQPEDFATYYCQQYSSHPYTFGQGTKLEIK
VH 2: not shown
VL 2: QAVVTQEPSLTVSPGGTVTLTCGSSTGAVTTSNYANWVQEKPGQAFRGLIGGTNKRAPGTPARFSGSLLGGKAALTLSGAQPEDEAEYYCALWYSNLWVFGGGTKLTVL
EC50, Jurkat-NFAT activation [1]: 0.0056 nM | EC50, Jurkat-NFAT activation [2]: 0.044 nM | EC50, Jurkat-NFAT activation [3]: 0.0184 nM | EC50, Jurkat-NFAT activation [4]: 0.1 nM | EC50, Jurkat-NFAT activation [5]: 5.27 nM | EC50, Jurkat-NFAT activation [6]: 40.1 nM | EC50, Jurkat-NFAT activation [7]: 0.029 nM | EC50, Jurkat-NFAT activation [8]: 51.6 nM | EC50, Jurkat-NFAT activation [9]: 0.0105 nM | EC50, Jurkat-NFAT activation [10]: 40.1 nM | EC50, Jurkat-NFAT activation [11]: 0.0383 nM | EC50 [pM], T-cell mediated lysis of A-375 cells, 24 h [12]: 1210 pM | EC50 [pM], T-cell mediated lysis of C-33A cells, 24 h [12]: 225 pM | EC50 [pM], T-cell mediated lysis of IM-9 cells, 24 h [12]: 43.4 pM | EC50 [pM], T-cell mediated lysis of NCI-H1755 cells, 24 h [12]: 9.4 pM | EC50 [pM], T-cell mediated lysis of NCI-H2023 cells, 24 h [12]: 2090 pM | EC50 [pM], T-cell mediated lysis of UMUC-3 cells, 24 h [12]: 775 pM | EC50 [pM] 24 h, T-cell mediated lysis of MAGE-A4 peptide pulsed T2 cells [13]: 1.2 pM | EC50 [pM], activation of Jurkat-NFAT reporter cells (luminescence, 6 h) with MAGE-A4 peptide pulsed T2 cells [14]: 30.3 pM | % of MAGE-A4 signal, Jurkat-NFAT [15]: 0.4% | % of MAGE-A4 signal, Jurkat-NFAT [16]: 0.39% | % of MAGE-A4 signal, Jurkat-NFAT [17]: 0.58% | % of MAGE-A4 signal, Jurkat-NFAT [18]: 0.41% | % of MAGE-A4 signal, Jurkat-NFAT [19]: 0.92% | % of MAGE-A4 signal, Jurkat-NFAT [20]: 0.67% | % of MAGE-A4 signal, Jurkat-NFAT [21]: 0.83% | % of MAGE-A4 signal, Jurkat-NFAT [22]: 0.75% | % of MAGE-A4 signal, Jurkat-NFAT [23]: 0.91% | % of MAGE-A4 signal, Jurkat-NFAT [24]: 0.67% | % of MAGE-A4 signal, Jurkat-NFAT; grey (>2%) [25]: 22.4% | % of MAGE-A4 signal, Jurkat-NFAT [26]: 0.39% | % of MAGE-A4 signal, Jurkat-NFAT; grey (>2%) [27]: 3.06% | % of MAGE-A4 signal, Jurkat-NFAT [28]: 0.64% | % of MAGE-A4 signal, Jurkat-NFAT [29]: 0.5% | % of MAGE-A4 signal, Jurkat-NFAT [30]: 0.48% | % of MAGE-A4 signal, Jurkat-NFAT [31]: 0.9% | % of MAGE-A4 signal, Jurkat-NFAT; grey (>2%) [32]: 80.5% | % of MAGE-A4 signal, Jurkat-NFAT [33]: 0.47% | % of MAGE-A4 signal, Jurkat-NFAT [34]: 0.46% | % of MAGE-A4 signal, Jurkat-NFAT; grey (>2%) [35]: 32.9% | % of MAGE-A4 signal, Jurkat-NFAT [36]: 1.74% | % of MAGE-A4 signal, Jurkat-NFAT [37]: 1.68% | % of MAGE-A4 signal, Jurkat-NFAT [38]: 0.5% | % of MAGE-A4 signal, Jurkat-NFAT [39]: 0.7%

B2: Molecule E (bispecific antibody, V domains shown)
VH 1: not shown
VL 1: SSELTQDPAVSVALGQTVRITCQGDSLRSYYASWYQQKPGQAPVLVIYGKNNRPSGIPDRFSGSSSGNTASLTITGAQAEDEADYYCNSRQSSYYHHIVFGGGTKLTVL
VH 2: not shown
VL 2: B1 VL 2
EC50, Jurkat-NFAT activation [1]: 9.44 nM | EC50, Jurkat-NFAT activation [2]: 1.23 nM | EC50, Jurkat-NFAT activation [3]: 4.07 nM | EC50, Jurkat-NFAT activation [4]: 2.98 nM | EC50, Jurkat-NFAT activation [5]: 2.06 nM | EC50, Jurkat-NFAT activation [6]: 2.72 nM | EC50, Jurkat-NFAT activation [7]: 7.46 nM | EC50, Jurkat-NFAT activation [8]: 22.3 nM | EC50, Jurkat-NFAT activation [9]: 1.62 nM | EC50, Jurkat-NFAT activation [10]: 2.37 nM | EC50, Jurkat-NFAT activation [11]: 4.26 nM | EC50 [pM], T-cell mediated lysis of C-33A cells, 24 h [12]: 3980 pM | EC50 [pM], T-cell mediated lysis of IM-9 cells, 24 h [12]: 393 pM | EC50 [pM], T-cell mediated lysis of NCI-H1755 cells, 24 h [12]: 84.4 pM | EC50 [pM], T-cell mediated lysis of UMUC-3 cells, 24 h [12]: ~5800 pM | EC50 [pM] 24 h, T-cell mediated lysis of MAGE-A4 peptide pulsed T2 cells [13]: 32.7 pM | EC50 [pM], activation of Jurkat-NFAT reporter cells (luminescence, 6 h) with MAGE-A4 peptide pulsed T2 cells [14]: 877 pM | % of MAGE-A4 signal, Jurkat-NFAT [15]: 0.17% | % of MAGE-A4 signal, Jurkat-NFAT [16]: 0.34% | % of MAGE-A4 signal, Jurkat-NFAT [17]: 0.26% | % of MAGE-A4 signal, Jurkat-NFAT [18]: 0.29% | % of MAGE-A4 signal, Jurkat-NFAT [19]: 0.85% | % of MAGE-A4 signal, Jurkat-NFAT [20]: 0.93% | % of MAGE-A4 signal, Jurkat-NFAT; grey (>2%) [40]: 43.2% | % of MAGE-A4 signal, Jurkat-NFAT; grey (>2%) [21]: 108% | % of MAGE-A4 signal, Jurkat-NFAT [22]: 0.4% | % of MAGE-A4 signal, Jurkat-NFAT [23]: 0.39% | % of MAGE-A4 signal, Jurkat-NFAT; grey (>2%) [24]: 47% | % of MAGE-A4 signal, Jurkat-NFAT; grey (>2%) [25]: 110% | % of MAGE-A4 signal, Jurkat-NFAT [26]: 0.38% | % of MAGE-A4 signal, Jurkat-NFAT; grey (>2%) [27]: 38.6% | % of MAGE-A4 signal, Jurkat-NFAT [28]: 0.31% | % of MAGE-A4 signal, Jurkat-NFAT [29]: 0.34% | % of MAGE-A4 signal, Jurkat-NFAT [30]: 0.49% | % of MAGE-A4 signal, Jurkat-NFAT [31]: 0.54% | % of MAGE-A4 signal, Jurkat-NFAT [32]: 1.2% | % of MAGE-A4 signal, Jurkat-NFAT [33]: 0.45% | % of MAGE-A4 signal, Jurkat-NFAT; grey (>2%) [34]: 4.03% | % of MAGE-A4 signal, Jurkat-NFAT [35]: 1.04% | % of MAGE-A4 signal, Jurkat-NFAT [36]: 0.37% | % of MAGE-A4 signal, Jurkat-NFAT [37]: 0.48% | % of MAGE-A4 signal, Jurkat-NFAT [38]: 0.43% | % of MAGE-A4 signal, Jurkat-NFAT [39]: 0.26%

B3: Molecule F (bispecific antibody, V domains shown)
VH 1: not shown
VL 1: B2 VL 1 with G67S, Q91M, Y94R, I98D
VH 2: not shown
VL 2: B1 VL 2
EC50, Jurkat-NFAT activation [1]: 1.09 nM | EC50, Jurkat-NFAT activation [2]: 0.0813 nM | EC50, Jurkat-NFAT activation [3]: 6.57 nM | EC50, Jurkat-NFAT activation [4]: 0.332 nM | EC50, Jurkat-NFAT activation [5]: 15 nM | EC50, Jurkat-NFAT activation [6]: 0.259 nM | EC50, Jurkat-NFAT activation [7]: 0.791 nM | EC50, Jurkat-NFAT activation [8]: 9.95 nM | EC50, Jurkat-NFAT activation [9]: 0.0954 nM | EC50, Jurkat-NFAT activation [10]: 0.196 nM | EC50, Jurkat-NFAT activation [11]: 0.45 nM | EC50 [pM], T-cell mediated lysis of A-375 cells, 24 h [12]: 822 pM | EC50 [pM], T-cell mediated lysis of C-33A cells, 24 h [12]: 186 pM | EC50 [pM], T-cell mediated lysis of IM-9 cells, 24 h [12]: 8.3 pM | EC50 [pM], T-cell mediated lysis of NCI-H1755 cells, 24 h [12]: 2.7 pM | EC50 [pM], T-cell mediated lysis of NCI-H2023 cells, 24 h [12]: 890 pM | EC50 [pM], T-cell mediated lysis of U266B1 cells, 24 h [12]: 352 pM | EC50 [pM], T-cell mediated lysis of UMUC-3 cells, 24 h [12]: 429 pM | EC50 [pM] 24 h, T-cell mediated lysis of MAGE-A4 peptide pulsed T2 cells [13]: 1.5 pM | EC50 [pM], activation of Jurkat-NFAT reporter cells (luminescence, 6 h) with MAGE-A4 peptide pulsed T2 cells [14]: 41.6 pM | % of MAGE-A4 signal, Jurkat-NFAT [15]: 0.64% | % of MAGE-A4 signal, Jurkat-NFAT [16]: 0.66% | % of MAGE-A4 signal, Jurkat-NFAT [17]: 0.8% | % of MAGE-A4 signal, Jurkat-NFAT [18]: 0.42% | % of MAGE-A4 signal, Jurkat-NFAT [19]: 1.53% | % of MAGE-A4 signal, Jurkat-NFAT [20]: 1.58% | % of MAGE-A4 signal, Jurkat-NFAT; grey (>2%) [40]: 145% | % of MAGE-A4 signal, Jurkat-NFAT; grey (>2%) [21]: 126% | % of MAGE-A4 signal, Jurkat-NFAT [22]: 0.71% | % of MAGE-A4 signal, Jurkat-NFAT [23]: 1.01% | % of MAGE-A4 signal, Jurkat-NFAT; grey (>2%) [24]: 172% | % of MAGE-A4 signal, Jurkat-NFAT; grey (>2%) [25]: 130% | % of MAGE-A4 signal, Jurkat-NFAT [26]: 0.68% | % of MAGE-A4 signal, Jurkat-NFAT; grey (>2%) [27]: 76.8% | % of MAGE-A4 signal, Jurkat-NFAT [28]: 0.73% | % of MAGE-A4 signal, Jurkat-NFAT [29]: 0.9% | % of MAGE-A4 signal, Jurkat-NFAT [30]: 1.05% | % of MAGE-A4 signal, Jurkat-NFAT [31]: 0.89% | % of MAGE-A4 signal, Jurkat-NFAT; grey (>2%) [32]: 78.4% | % of MAGE-A4 signal, Jurkat-NFAT [33]: 0.55% | % of MAGE-A4 signal, Jurkat-NFAT [34]: 0.78% | % of MAGE-A4 signal, Jurkat-NFAT; grey (>2%) [35]: 61.9% | % of MAGE-A4 signal, Jurkat-NFAT; grey (>2%) [36]: 6.54% | % of MAGE-A4 signal, Jurkat-NFAT; grey (>2%) [37]: 14.2% | % of MAGE-A4 signal, Jurkat-NFAT [38]: 0.64% | % of MAGE-A4 signal, Jurkat-NFAT [39]: 0.78%

Reference: patent publication US20260098095A1 (Hoffmann-La Roche, published 2026)
